# From PMC9405553, “G-Quadruplex Formed by the Promoter Region of the hTERT Gene: Structure-Driven Effects on DNA Mismatch Repair Functions”
# Residue numbers refer to the chain shown, from its start. Numbers in names are those of the source.
# T1: ecMutS (Escherichia coli, UniProt P23909 1-853)
# T1 sequence: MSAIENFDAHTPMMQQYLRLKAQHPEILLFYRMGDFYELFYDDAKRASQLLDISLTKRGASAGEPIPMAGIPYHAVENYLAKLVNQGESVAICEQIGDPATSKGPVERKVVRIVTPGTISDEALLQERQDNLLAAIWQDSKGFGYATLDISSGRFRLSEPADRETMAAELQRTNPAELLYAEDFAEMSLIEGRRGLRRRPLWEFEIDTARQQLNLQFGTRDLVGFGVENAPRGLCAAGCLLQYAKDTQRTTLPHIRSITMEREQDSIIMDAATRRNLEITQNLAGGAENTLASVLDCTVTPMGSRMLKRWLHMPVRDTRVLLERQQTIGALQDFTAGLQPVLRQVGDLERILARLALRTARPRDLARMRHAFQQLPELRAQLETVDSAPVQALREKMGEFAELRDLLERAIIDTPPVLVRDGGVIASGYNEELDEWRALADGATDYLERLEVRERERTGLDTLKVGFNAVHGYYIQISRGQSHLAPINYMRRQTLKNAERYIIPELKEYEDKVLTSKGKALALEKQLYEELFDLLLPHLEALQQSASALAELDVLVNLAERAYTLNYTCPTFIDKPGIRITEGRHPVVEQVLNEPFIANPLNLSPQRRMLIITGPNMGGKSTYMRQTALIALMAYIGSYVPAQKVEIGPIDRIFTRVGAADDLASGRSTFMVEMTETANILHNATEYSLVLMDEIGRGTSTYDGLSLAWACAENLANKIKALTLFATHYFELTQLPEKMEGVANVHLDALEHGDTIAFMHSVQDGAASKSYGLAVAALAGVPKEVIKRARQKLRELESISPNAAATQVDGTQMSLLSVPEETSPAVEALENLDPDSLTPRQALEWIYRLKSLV
# T2: ngMutL (Neisseria gonorrhoeae (FA 1090 in Fig. …, UniProt Q5F8M6 1-658))
# T2 sequence: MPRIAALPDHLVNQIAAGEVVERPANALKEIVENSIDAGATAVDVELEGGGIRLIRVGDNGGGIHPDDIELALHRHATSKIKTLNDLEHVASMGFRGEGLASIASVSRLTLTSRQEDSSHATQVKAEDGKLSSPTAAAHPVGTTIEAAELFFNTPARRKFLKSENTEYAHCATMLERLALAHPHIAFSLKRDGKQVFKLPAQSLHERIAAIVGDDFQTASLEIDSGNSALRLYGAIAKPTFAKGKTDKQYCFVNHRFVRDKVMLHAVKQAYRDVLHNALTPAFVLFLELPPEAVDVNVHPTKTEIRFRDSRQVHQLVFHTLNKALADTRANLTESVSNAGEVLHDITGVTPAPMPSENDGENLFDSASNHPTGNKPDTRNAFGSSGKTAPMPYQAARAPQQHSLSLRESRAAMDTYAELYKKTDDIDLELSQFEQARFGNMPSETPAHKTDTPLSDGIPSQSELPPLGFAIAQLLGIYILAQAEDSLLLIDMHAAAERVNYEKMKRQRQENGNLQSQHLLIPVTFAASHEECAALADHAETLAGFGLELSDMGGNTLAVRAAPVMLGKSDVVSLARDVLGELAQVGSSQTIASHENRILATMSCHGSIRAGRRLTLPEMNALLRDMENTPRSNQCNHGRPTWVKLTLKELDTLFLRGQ
# B1: 95G4 (structured_DNA)
# DNA: ATAGGACGCTGACACTGGTGCTTGGCAGCTGAGCCATATTTGGGTGGGTGGGTGGGTTGCTCGAGTAACGCTCATAGGATCCAAGCGCGAAAGGA
# B2: WT-5' (structured_DNA)
# DNA: GCCGCGGAAAGGAAGGGGAGGGGCTGGGAGGGCCCGGAGGGGGCTGGGCCGGGGACCCGGGAGGGGTCGGGACGGGGCGGGGTCCGCGCGGAGGAG
# B3: G250A (unlabeled) (structured_DNA)
# DNA: B2 DNA with G61A
# B4: G242,243A-5' (structured_DNA)
# DNA: B2 DNA with G53A, G54A
# B5: WT-3' (structured_DNA)
# DNA: B2 DNA
# B6: G250A-3' (structured_DNA)
# DNA: B2 DNA with G61A
# B7: G228A-5' (structured_DNA)
# DNA: B2 DNA with G39A
# B8: G242,243A (unlabeled) (structured_DNA)
# DNA: B2 DNA with G53A, G54A
# B9: G228A (unlabeled) (structured_DNA)
# DNA: B2 DNA with G39A
# B10: WT (structured_DNA)
# DNA: B2 DNA
# B11: G242,243A-3' (structured_DNA)
# DNA: B2 DNA with G53A, G54A
# B12: G250A-5' (structured_DNA)
# DNA: B2 DNA with G61A
# B13: G228A-3' (structured_DNA)
# DNA: B2 DNA with G39A
# B14: ds76-G/T-3' (dsDNA)
# DNA 1: ATAGGACGCTGACACTGGTGCTTGGCAGCTGAGCCATATGCTCGAGTAACGCTCATAGGATCCAAGCGCGAAAGGA
# DNA 2: TCCTTTCGCGCTTGGATCCTATGAGCGTTACTCGAGCATATGGCTCAGCTGCCAGGCACCAGTGTCAGCGTCCTAT
# B15: ds96/96* (dsDNA)
# DNA 1: ACCTGGATGCCTATAGGGCGAATTGGGTACCGCTGAATTGCACTGGACTTGATCCTCGATGATCCTAAGCTAAGCTTCAGCTCCAGCCTAAGCCTG
# DNA 2: CAGGCTTAGGCTGGAGCTGAAGCTTAGCTTAGGATCATCGAGGATCGAGTCCGGTGCAATTCAGCGGTACCCAATTCGCCCTATAGGCATCCAGGT
# Key:
# [1] = molecular target: T1, ecMutS; experiment: EMSA; 1 mM ADP, 5 mM MgCl2; ecMutS: 20 mM HEPES-KOH pH 7.9, 5 mM MgCl2, 120 mM KCl, 0.5 mg/mL BSA, 1 mM ADP, 37 C 15 min, 5 nM DNA; ecMutL/ngMutL: 20 mM HEPES pH 8.0, 100 mM KCl, 0.5 mg/mL BSA, 1 mM DTT, on ice 10 min, 20 nM DNA; gels in TAE at 4 C; settings: protein: recombinant, tags: N-terminal His6, chain copies: 2
# [2] = molecular target: ecMutL (Escherichia coli (K12 in Fig. S2 legend), UniProt P23367 1-615); experiment: EMSA; ecMutS: 20 mM HEPES-KOH pH 7.9, 5 mM MgCl2, 120 mM KCl, 0.5 mg/mL BSA, 1 mM ADP, 37 C 15 min, 5 nM DNA; ecMutL/ngMutL: 20 mM HEPES pH 8.0, 100 mM KCl, 0.5 mg/mL BSA, 1 mM DTT, on ice 10 min, 20 nM DNA; gels in TAE at 4 C; settings: protein: recombinant, tags: N-terminal His6, chain copies: 2
# [3] = molecular target: T2, ngMutL; experiment: as above; settings: protein: recombinant, tags: N-terminal His6, chain copies: 2
# [4] = molecular target: T1, ecMutS; experiment: competition; vs ds76-G/T-3', 65 nM ecMutS dimer; ecMutS: 20 mM HEPES-KOH pH 7.9, 5 mM MgCl2, 120 mM KCl, 0.5 mg/mL BSA, 1 mM ADP, 37 C 15 min, 5 nM DNA; ecMutL/ngMutL: 20 mM HEPES pH 8.0, 100 mM KCl, 0.5 mg/mL BSA, 1 mM DTT, on ice 10 min, 20 nM DNA; gels in TAE at 4 C; settings: protein: recombinant; tags: N-terminal His6; chain copies: 2; label: none; three stacked parallel intramolecular G4s
# [5] = molecular target: T1, ecMutS; experiment: EMSA; ecMutS: 20 mM HEPES-KOH pH 7.9, 5 mM MgCl2, 120 mM KCl, 0.5 mg/mL BSA, 1 mM ADP, 37 C 15 min, 5 nM DNA; ecMutL/ngMutL: 20 mM HEPES pH 8.0, 100 mM KCl, 0.5 mg/mL BSA, 1 mM DTT, on ice 10 min, 20 nM DNA; gels in TAE at 4 C; settings: protein: recombinant; tags: N-terminal His6; chain copies: 2; text says bottom strand; blunt, one T:G mismatch at strand 1 position 22
# [6] = text says 5' for ecMutS assays, single parallel intramolecular G4
# [7] = label: 5'-TAMRA, three stacked parallel intramolecular G4s
# [8] = label: 3'-TAMRA, three stacked parallel intramolecular G4s
# Sequence of ecMutL (P23367 whole entry): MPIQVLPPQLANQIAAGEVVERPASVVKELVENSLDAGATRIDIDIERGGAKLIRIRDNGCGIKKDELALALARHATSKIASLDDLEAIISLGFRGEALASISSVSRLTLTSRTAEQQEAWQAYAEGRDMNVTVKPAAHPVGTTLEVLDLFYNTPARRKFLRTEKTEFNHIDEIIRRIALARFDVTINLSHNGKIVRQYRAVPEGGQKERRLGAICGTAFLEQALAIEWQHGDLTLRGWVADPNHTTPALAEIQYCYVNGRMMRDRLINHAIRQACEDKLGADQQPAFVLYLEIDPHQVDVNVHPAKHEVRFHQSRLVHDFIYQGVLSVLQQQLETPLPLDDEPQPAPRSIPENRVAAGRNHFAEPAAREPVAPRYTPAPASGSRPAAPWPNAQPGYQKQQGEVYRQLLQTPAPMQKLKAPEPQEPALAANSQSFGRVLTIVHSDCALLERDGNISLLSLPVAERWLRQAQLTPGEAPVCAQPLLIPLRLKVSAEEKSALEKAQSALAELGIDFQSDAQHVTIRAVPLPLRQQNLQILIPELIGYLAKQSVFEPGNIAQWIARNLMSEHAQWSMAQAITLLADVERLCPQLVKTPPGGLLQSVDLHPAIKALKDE
binder,measurement,setting,value
B1,Kd,[1]; [6],38 ± 5 nM
same,Kd,[2]; [6],120 ± 20 nM
same,Kd,[3]; [6],41 ± 1 nM
B2,Kd,[1]; [7],15 ± 6 nM
same,Kd,[2]; [7],115 ± 30 nM
B3,IC50,[4],40 ± 15 nM
same,Ki,[4],35 ± 15 nM
B4,Kd,[1]; [7],27 ± 4 nM
same,Kd,[2]; [7],110 ± 20 nM
B5,Kd,[3]; [8],49 ± 3 nM
B6,Kd,[3]; [8],42 ± 2 nM
B7,Kd,[1]; [7],24 ± 6 nM
same,Kd,[2]; [7],170 ± 40 nM
B8,IC50,[4],28 ± 7 nM
same,Ki,[4],25 ± 8 nM
B9,IC50,[4],35 ± 4 nM
same,Ki,[4],31 ± 6 nM
B10,IC50,[4],32 ± 3 nM
same,Ki,[4],28 ± 5 nM
B11,Kd,[3]; [8],51 ± 2 nM
B12,Kd,[1]; [7],30 ± 7 nM
same,Kd,[2]; [7],130 ± 30 nM
B13,Kd,[3]; [8],44 ± 3 nM
B14,Kd,[5],35 ± 3 nM
B15,Kd,"[3]; label: 3'-TAMRA on strand 1, blunt",125 ± 5 nM
